Results: patent US11371056B2, “HPPD variants and methods of use” (BASF Agricultural Solutions Seed US LLC, priority 2017, dated 2022)
Positions count from the first letter of the chain named.

B1: SEQ ID NO:29 (protein)
chain: MADLYENPMGLMGFEFIEFASPTPGTLEPIFEIMGFTKVATHRSKNVHLYRQGEINLILNNEPNSIASYFAAEHGPSVCGMAFRVKDSQKAYNRALELGAQPIHIDTGPMELNLPAIKGIGGAPLYLIDRFGEGSSIYDIDFVYLEGVERNPVGAGLKVIDHLTHNVYRGRMVYWANFYEKLFNFREARYFDIKGEYTGLTSKAMSAPDGMIRIPLNEESSKGAGQIEEFLMQFNGEGIQHVAFLTDDLVKTWDALKKIGMRFMTAPGDEYYEMLEGRLPDHGEPVDQLQARGILLDGSSVEGDKRLLLQIFSEKLMGPVFFEFIQRKGDDGFGPHSFKVLFEQIERDQVRRGVLTAD
modifications: mutant HPPD polypeptide
B2: SEQ ID NO:45 (protein)
chain: B1 chain with R213K, K315T, Q344S, I345M
modifications: mutant HPPD polypeptide
B3: SEQ ID NO:33 (protein)
chain: B1 chain with K315R, Q344S, I345M
modifications: mutant HPPD polypeptide
B4: SEQ ID NO:52 (protein)
chain: B1 chain with P215A, K315R, Q344S
modifications: mutant HPPD polypeptide
B5: SEQ ID NO:48 (protein)
chain: B1 chain with R213K, K315T, H336D, Q344S
modifications: mutant HPPD polypeptide
B6: SEQ ID NO:37 (protein)
chain: B1 chain with K315R, I345M
modifications: mutant HPPD polypeptide
B7: SEQ ID NO:56 (protein)
chain: B1 chain with M264L, K315Q, I345M
modifications: mutant HPPD polypeptide
B8: SEQ ID NO:50 (protein)
chain: B1 chain with R213K, K315T, Q344S
modifications: mutant HPPD polypeptide
B9: SEQ ID NO:44 (protein)
chain: B1 chain with R213K, K315Q, Q344S, I345M
modifications: mutant HPPD polypeptide
B10: SEQ ID NO:54 (protein)
chain: B1 chain with M264L, I345M
modifications: mutant HPPD polypeptide
B11: SEQ ID NO:40 (protein)
chain: B1 chain with R213K, K315Q, H336D, Q344S, I345M
modifications: mutant HPPD polypeptide
B12: SEQ ID NO:47 (protein)
chain: B1 chain with R213K, K315R, H336D, Q344S
modifications: mutant HPPD polypeptide
B13: SEQ ID NO:53 (protein)
chain: B1 chain with M264L, K315T, I345M
modifications: mutant HPPD polypeptide
B14: SEQ ID NO:32 (protein)
chain: B1 chain with K315Q, Q344S, I345M
modifications: mutant HPPD polypeptide
B15: SEQ ID NO:41 (protein)
chain: B1 chain with R213K, K315R, H336D, Q344S, I345M
modifications: mutant HPPD polypeptide
B16: SEQ ID NO:34 (protein)
chain: B1 chain with K315T, Q344S, I345M
modifications: mutant HPPD polypeptide
B17: SEQ ID NO:51 (protein)
chain: B1 chain with P215A, K315Q, Q344S
modifications: mutant HPPD polypeptide
B18: SEQ ID NO:39 (protein)
chain: B1 chain with R213K, H336D, Q344S, I345M
modifications: mutant HPPD polypeptide
B19: SEQ ID NO:31 (protein)
chain: B1 chain with Q344S, I345M
modifications: mutant HPPD polypeptide
B20: SEQ ID NO:46 (protein)
chain: B1 chain with R213K, H336D, Q344S
modifications: mutant HPPD polypeptide
B21: SEQ ID NO:42 (protein)
chain: B1 chain with R213K, K315T, H336D, Q344S, I345M
modifications: mutant HPPD polypeptide
B22: SEQ ID NO:49 (protein)
chain: B1 chain with R213K, K315Q, Q344S
modifications: mutant HPPD polypeptide
B23: SEQ ID NO:30 (protein)
chain: B1 chain with K315Q
modifications: mutant HPPD polypeptide
B24: SEQ ID NO:43 (protein)
chain: B1 chain with R213K, Q344S, I345M
modifications: mutant HPPD polypeptide
B25: SEQ ID NO:55 (protein)
chain: B1 chain with M264L, Q344S, I345M
modifications: mutant HPPD polypeptide

System: Pseudomonas fluorescens HPPD polypeptide (wild-type and mutants)
Test: Coupled HPPD activity assay: turnover and residual turnover in crude HPPD polypeptide extracts with and without Cmpd. 1
Format: biochemical
Conditions: for Residual turnover [%]: 100 μM Cmpd. 1, normalised to turnover without inhibitor; for Turnover: absence of Cmpd. 1; for Turnover / Residual turnover: changes in absorbance (OD) at 320 nm in the coupled assay, 30 min; for Residual turnover: presence of 100 μM Cmpd. 1
Procedure: For the generation of crude HPPD polypeptide extract in micro titer plates (MTP) for the determination of residual activity in inhibition assays, cells were grown in 40 or 150 μl LB medium containing 1% Glucose (Merck, Darmstadt, Germany) and 100 μg/ml ampicillin in a standard 96 well plate (Thermo Fisher Scientific, Waltham, USA) incubated for about 18 h in a humidity incubator at 37° C. 30 μl of this starter culture were added to 600 μl LB medium containing 100 μg/ml ampicillin and 150 mM Hepes (Merck, Darmstadt, Germany) as inoculum for the expression culture in 96 well plates (2 ml deep wells; HJ Bioanalytik, Erkelenz, Germany). The plates were sealed by an aluminium foil, and cells were incubated for 5 h at 37° C. on a plate shaker at 750 rpm. The expression was induced by addition of IPTG in a final concentration of 1 mM followed by further sealed incubation for about 18 h at 30° C. on a plate shaker at 750 rpm.
Cells were harvested by centrifugation at 4° C., 2500 g for 15 min discarding the supernatant. Cell pellets were stored at −80° C. and lysed in 250 μl 1× BugBuster® (Merck, Darmstadt, Germany) in 140 mM Tris (pH 7.8), with 1:25000 diluted BNase® (Qiagen, Hilden, Germany) by incubation of the resuspended cells for 30 min at 4° C. and 1000 rpm. Lysates were clarified by centrifugation for 15 min at 4° C., 2500 g, and 150 μl supernatant were transferred in standard 96 well plate (Thermo Fisher Scientific, Waltham, USA) for subsequent testing in quadruplets.
The activity of HPPD polypeptides was determined in absence or presence of HPPD inhibitors using the coupled HPPD activity assay (FIG. 1).
For the determination of the residual activity, the apparent kinetic constant (kapp) of the determined substrate conversion was measured as kinetic changes in absorbance (OD) at 320 nm in a coupled assay, in that homogentisate (HGA) formed by HPPD from HPP is directly converted into the well absorbing molecule maleylacetoacetate (MAA) by a second enzyme homogentisate dioxygenase (HGD), applied in excess uniformly in all assays (see FIG. 1). The measurements were performed in 384 micro titer plates (Greiner Bio-One GmbH, Frickenhausen, Germany) by plate readers (Tecan infinite M1000 or M1000PRO, Tecan, Männedorf, Switzerland). The kcat/kM ratio of an enzymatic activity is proportional to the apparent kinetic constant kapp and is proportional to kcat/kM*[E] ([E]=enzyme concentration). […] As both kapp measurements in the presence and absence of inhibitor were performed by use of the identical enzyme sample, crude or purified, and thereby at the same enzyme concentration, the enzyme concentration eliminates from the calculation of residual activity and the ratio of both kapp directly indicates the change of kM due to the inhibition.
The assay solution used for determination of residual activities in raw HPPD polypeptide samples was composed by 200 mM sodium phosphate (Merck, Darmstadt, Germany, pH 7.0), 5 mM MgCl2 (Merck, Darmstadt, Germany), 20 mM ascorbate (Sigma-Aldrich, St. Louis, USA), 1 mM DTT (Sigma-Aldrich, St. Louis, USA), 0.1% Pluronic F-68 (Sigma-Aldrich, St. Louis, USA), 40 μM FeSO4 (Sigma-Aldrich, St. […] Louis, USA) and equilibrated for 20 min on ice.

| Molecule | Residual turnover [%] | Turnover | Residual turnover |
| --- | --- | --- | --- |
| B1 | 61 | 0.286 | 0.174 |
| B2 | 60 | 0.275 | 0.164 |
| B3 |  | 0.015 | 0.014 |
| B4 | 61 | 0.173 | 0.105 |
| B5 | 38 | 0.161 | 0.061 |
| B6 | 42 | 0.106 | 0.045 |
| B7 | 75 | 0.339 | 0.253 |
| B8 | 54 | 0.272 | 0.148 |
| B9 | 54 | 0.272 | 0.148 |
| B10 | 82 | 0.274 | 0.224 |
| B11 | 36 | 0.204 | 0.073 |
| B12 | 68 | 0.09 | 0.061 |
| B13 | 73 | 0.339 | 0.246 |
| B14 | 57 | 0.269 | 0.154 |
| B15 | 43 | 0.247 | 0.105 |
| B16 | 53 | 0.278 | 0.148 |
| B17 | 61 | 0.173 | 0.106 |
| B18 | 32 | 0.176 | 0.057 |
| B19 | 48 | 0.268 | 0.128 |
| B20 | 36 | 0.162 | 0.059 |
| B21 | 33 | 0.209 | 0.068 |
| B22 | 52 | 0.318 | 0.165 |
| B23 | 61 | 0.294 | 0.18 |
| B24 | 54 | 0.291 | 0.157 |
| B25 | 58 | 0.303 | 0.177 |
